The results in this text go back to US20020164744A1, “Soluble, active recombinant human MAO-B” (priority 1999, published 2002).

What is called Km is the concentration of substrate that gives half-maximal velocity.

Series [1] concerns the target T1, recombinant human MAO-B (Homo sapiens, UniProt P27338).
T1 construct: DNA coding for the full length and truncated C-terminal HIS tagged MAO-B proteins, as described above; made in house; host or cells: Saccharomyces cerevisiae INVSc1
T1 sequence (P27338 1-520): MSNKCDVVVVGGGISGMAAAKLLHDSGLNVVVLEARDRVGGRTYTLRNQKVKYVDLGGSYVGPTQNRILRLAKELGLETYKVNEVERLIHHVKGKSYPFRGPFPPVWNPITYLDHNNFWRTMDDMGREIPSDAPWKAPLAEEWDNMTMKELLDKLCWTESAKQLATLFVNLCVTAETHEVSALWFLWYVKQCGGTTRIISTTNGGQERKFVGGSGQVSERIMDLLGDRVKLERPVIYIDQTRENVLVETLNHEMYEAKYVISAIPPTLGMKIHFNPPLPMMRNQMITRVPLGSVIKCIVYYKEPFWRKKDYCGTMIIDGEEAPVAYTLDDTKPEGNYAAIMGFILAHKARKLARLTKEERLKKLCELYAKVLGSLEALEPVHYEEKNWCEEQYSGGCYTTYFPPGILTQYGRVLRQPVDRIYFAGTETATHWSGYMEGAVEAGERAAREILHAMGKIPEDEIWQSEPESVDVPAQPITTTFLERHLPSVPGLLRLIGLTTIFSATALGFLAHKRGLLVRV
The experiment in a line: MAO-B activity assay (reaction velocity, specific activity, Km) with 1-methyl-4-(1-methyl-2-pyrryl)-1,2,3,6-tetrahydropyridine as substrate. The class given is biochemical. How it is done:
(§1) The MAO-B containing solutions, including fractions isolated from chromatography columns, were assayed to measure reaction velocity. The assays were carried out in a final volume of 200 μl in 50 mM sodium phosphate, 10 mM NaCl, pH 7.5, with 0.2 mM substrate (1-methyl-4-(1-methyl-2-pyrryl)-1,2,3,6-tetrahydropyridine) as described in Flaherty, et al., J. Med. Chem., 39:4756-4761 (1996) hereby incorporated by reference. Reaction velocity was followed at an absorbence of 420 nm at 37° C. in a SpectraMax 250 96-well plate reader. Specific activity measurements were made using a Shimadzu UV-2101PC spectrophotometer equipped with a Shimadzu temperature controller (TCC-controller) set to 37° C. Protein concentrations were determined using the Bio-Rad Protein Assay kit (Bio-Rad Laboratories, Hercules, Calif.).
(§2) Analysis of samples containing purified wild-typeMAO-B was carried out using 1-methyl-4-(1-methyl-2-pyrryl)-1,2,3,6-tetrahydropyridine as the substrate. The effect of protein concentration on activity was measured. […] The plot of MAO-B concentration vs. activity was a straight line. Variation of the substrate at a constant enzyme concentration was used to determine the Km for the substrate. […] Again, the reaction progress at each concentration of substrate was followed as straight lines with coefficients of correlation greater than 0.99.
(§3) The activity of samples containing the purified mutant MAO-B described in Example 1 above was also analyzed using 1-methyl-4-(1-methyl-2-pyrryl)-1,2,3,6-tetrahydropyridine as the substrate. Activity was highest for wild-type MAO-B followed by the MAO-B mutant Met1-Leu498 which had approximately 10% of wild-type activity. The two remaining C-terminal deletion mutants, Met1-Val470 and Met1-Val418, had about the same activities, less than 0.1% of wild-type MAO-B activity. This confirms that deletion or truncation of the C-terminus of human MAO-B causes loss of enzymatic activity.

The subject of series [2] is recombinant human MAO-B. The series is described as above. The settings on record: substrate 1-methyl-4-(1-methyl-2-pyrryl)-1,2,3,6-tetrahydropyridine; purified C-terminal deletion mutants. In kind it is biochemical. How it is done:
as §1, §2, §3

[3] abbreviates: substrate 1-methyl-4-(1-methyl-2-pyrryl)-1,2,3,6-tetrahydropyridine, 37° C., fraction after purification step.
[4] abbreviates: substrate 1-methyl-4-(1-methyl-2-pyrryl)-1,2,3,6-tetrahydropyridine, fraction after purification step, read-out: Km FOR SUBSTRATE

Read-outs that look alike come from different tables or passages of the source.

B1: wild-type MAO-B: purified full-length recombinant human MAO-B with HIS6 tag expressed in S. cerevisiae (protein, UniProt P27338 1-520, looked up)
chain: MSNKCDVVVVGGGISGMAAAKLLHDSGLNVVVLEARDRVGGRTYTLRNQKVKYVDLGGSYVGPTQNRILRLAKELGLETYKVNEVERLIHHVKGKSYPFRGPFPPVWNPITYLDHNNFWRTMDDMGREIPSDAPWKAPLAEEWDNMTMKELLDKLCWTESAKQLATLFVNLCVTAETHEVSALWFLWYVKQCGGTTRIISTTNGGQERKFVGGSGQVSERIMDLLGDRVKLERPVIYIDQTRENVLVETLNHEMYEAKYVISAIPPTLGMKIHFNPPLPMMRNQMITRVPLGSVIKCIVYYKEPFWRKKDYCGTMIIDGEEAPVAYTLDDTKPEGNYAAIMGFILAHKARKLARLTKEERLKKLCELYAKVLGSLEALEPVHYEEKNWCEEQYSGGCYTTYFPPGILTQYGRVLRQPVDRIYFAGTETATHWSGYMEGAVEAGERAAREILHAMGKIPEDEIWQSEPESVDVPAQPITTTFLERHLPSVPGLLRLIGLTTIFSATALGFLAHKRGLLVRV
modifications: full-length His6 tag
notes: purified full-length recombinant human MAO-B with HIS6 tag expressed in S. cerevisiae
On to B1, for which, in the series with recombinant human MAO-B [1] (substrate 1-methyl-4-(1-methyl-2-pyrryl)-1,2,3,6-tetrahydropyridine), the “activity (rank among wild-type and mutants)” value is “highest”. Moreover, in the series with recombinant human MAO-B [1] (substrate 1-methyl-4-(1-methyl-2-pyrryl)-1,2,3,6-tetrahydropyridine varied at constant enzyme concentration, 37° C., read-out: Km for the substrate (Lineweaver Burke plot)), the Km was determined as 71.9 µM.

B2: Post-Superose 6 chromatography/concentrate: recombinant human MAO-B further resolved on Superose-6 size exclusion column and concentrated (protein, UniProt P27338 2-520, looked up)
Amine oxidase …: SNKCDVVVVGGGISGMAAAKLLHDSGLNVVVLEARDRVGGRTYTLRNQKVKYVDLGGSYVGPTQNRILRLAKELGLETYKVNEVERLIHHVKGKSYPFRGPFPPVWNPITYLDHNNFWRTMDDMGREIPSDAPWKAPLAEEWDNMTMKELLDKLCWTESAKQLATLFVNLCVTAETHEVSALWFLWYVKQCGGTTRIISTTNGGQERKFVGGSGQVSERIMDLLGDRVKLERPVIYIDQTRENVLVETLNHEMYEAKYVISAIPPTLGMKIHFNPPLPMMRNQMITRVPLGSVIKCIVYYKEPFWRKKDYCGTMIIDGEEAPVAYTLDDTKPEGNYAAIMGFILAHKARKLARLTKEERLKKLCELYAKVLGSLEALEPVHYEEKNWCEEQYSGGCYTTYFPPGILTQYGRVLRQPVDRIYFAGTETATHWSGYMEGAVEAGERAAREILHAMGKIPEDEIWQSEPESVDVPAQPITTTFLERHLPSVPGLLRLIGLTTIFSATALGFLAHKRGLLVRV
For the molecule B2, in the series with recombinant human MAO-B [1] (setting [3]), the “SPECIFIC ACTIVITY” value was 80.6 nmol/min/mg. Further, the Km with recombinant human MAO-B [1] (setting [4]) worked out at 55.4 µM.

B3: IMAC eluted/concentrate: HIS-tagged recombinant human MAO-B from yeast extract, eluted from Ni-NTA IMAC column and concentrated (protein, UniProt P27338 2-520, looked up)
Amine oxidase …: SNKCDVVVVGGGISGMAAAKLLHDSGLNVVVLEARDRVGGRTYTLRNQKVKYVDLGGSYVGPTQNRILRLAKELGLETYKVNEVERLIHHVKGKSYPFRGPFPPVWNPITYLDHNNFWRTMDDMGREIPSDAPWKAPLAEEWDNMTMKELLDKLCWTESAKQLATLFVNLCVTAETHEVSALWFLWYVKQCGGTTRIISTTNGGQERKFVGGSGQVSERIMDLLGDRVKLERPVIYIDQTRENVLVETLNHEMYEAKYVISAIPPTLGMKIHFNPPLPMMRNQMITRVPLGSVIKCIVYYKEPFWRKKDYCGTMIIDGEEAPVAYTLDDTKPEGNYAAIMGFILAHKARKLARLTKEERLKKLCELYAKVLGSLEALEPVHYEEKNWCEEQYSGGCYTTYFPPGILTQYGRVLRQPVDRIYFAGTETATHWSGYMEGAVEAGERAAREILHAMGKIPEDEIWQSEPESVDVPAQPITTTFLERHLPSVPGLLRLIGLTTIFSATALGFLAHKRGLLVRV
modifications: His tag
notes: HIS-tagged recombinant human MAO-B from yeast extract, eluted from Ni-NTA IMAC column and concentrated
For the molecule B3, in the series with recombinant human MAO-B [1] (setting [3]), the “SPECIFIC ACTIVITY” value amounted to 8.7 nmol/min/mg. Also, in the series with recombinant human MAO-B [1] (setting [4]), the Km is 71.9 µM.

B4: Met1-Leu498: C-terminal deletion mutant of human MAO-B-HIS6, residues Met1-Leu498 (protein, UniProt P27338 1-498, looked up, fragment)
chain: MSNKCDVVVVGGGISGMAAAKLLHDSGLNVVVLEARDRVGGRTYTLRNQKVKYVDLGGSYVGPTQNRILRLAKELGLETYKVNEVERLIHHVKGKSYPFRGPFPPVWNPITYLDHNNFWRTMDDMGREIPSDAPWKAPLAEEWDNMTMKELLDKLCWTESAKQLATLFVNLCVTAETHEVSALWFLWYVKQCGGTTRIISTTNGGQERKFVGGSGQVSERIMDLLGDRVKLERPVIYIDQTRENVLVETLNHEMYEAKYVISAIPPTLGMKIHFNPPLPMMRNQMITRVPLGSVIKCIVYYKEPFWRKKDYCGTMIIDGEEAPVAYTLDDTKPEGNYAAIMGFILAHKARKLARLTKEERLKKLCELYAKVLGSLEALEPVHYEEKNWCEEQYSGGCYTTYFPPGILTQYGRVLRQPVDRIYFAGTETATHWSGYMEGAVEAGERAAREILHAMGKIPEDEIWQSEPESVDVPAQPITTTFLERHLPSVPGLLRLIGL
modifications: His6 tag
Regarding B4, the “activity relative to wild-type MAO-B activity” value with recombinant human MAO-B [2] is “approximately 10%”.
